# Experiments:
# [1] = system: DP4 or a DP4-like activity in human serum; assay: Degradation of Gln1-MCP-1 in human serum in presence of DP4 inhibitor; type: biochemical; details: 9.6 μM inhibitor, 24 h, FIG. 7C
# Experimental: (§1) For cyclization of the N-terminal glutamine residue into pyroglutamate, MCP-1 was incubated with recombinant human QC for 3 h prior to assay start. In addition, Gln^1-MCP-1 was incubated in human serum in the presence of 9.6 μM DP4 Inhibitor Isoleucyl-Thiazolidide (P32/98) for 24 h (C). The cleavage products were analyzed after 0 min, 10 min, 30 min, 1 h, 2 h, 3 h 5 h and 7 h for Gln^1-MCP-1, 0 min, 30 min, 1 h, 2 h, 3 h 5 h, 7 h and 24 h for pGlu^1-MCP-1 and 0 min, 1 h, 2 h, 3 h, 5 h, 7 h and 24 h for Gln^1-MCP-1 in combination with Isoleucyl-Thiazolidide using Maldi-TOF mass spectrometry.
# (§2) Human recombinant MCP-1 carrying an N-terminal glutaminyl residue (Peprotech) was dissolved in 25 mM Tris/HCl, pH 7.6, in a concentration of 100 μg/ml. MCP-1 was either pre-incubated with recombinant human QC (0.006 mg/ml) for 3 h at 30° C. and subsequently incubated with human serum at 30° C. or incubated with human serum without addition of QC. The cleavage products were analyzed using Maldi-TOF mass spectrometry after 0 min, 10 min, 30 min, 1 h, 2 h, 3 h 5 h and 7 h for Gln^1-MCP-1 and 0 min, 30 min, 1 h, 2 h, 3 h 5 h, 7 h and 24 h for pGlu^1-MCP-1.
# [2] = N-terminal degradation of human MCP-1 in human serum, Maldi-TOF mass spectrometry; type: in vitro ADME
# Experimental: as §1
# Matrix-assisted laser desorption/ionization mass spectrometry was carried out using the Voyager De-Pro (Applied Biosystems, Darmstadt) with a linear time of flight analyzer. The instrument was equipped with a 337 nm nitrogen laser, a potential acceleration source and a 1.4 m flight tube. Detector operation was in the positive-ion mode. Samples (5 μl) were mixed with equal volumes of the matrix solution. For matrix solution sinapinic acid was used, prepared by solving 20 mg sinapinic acid (Sigma-Aldrich) in 1 ml acetonitrile/0.1% TFA in water (1/1, v/v). A small volume (≈1 μl) of the matrix-analyte-mixture was transferred to a probe tip.
# as §2
# human THP-1 monocytes = assay: TransWell chemotaxis assay; type: cell-based; details: for MCP-1 concentrations needed to elicit the maximum response: after incubation with human DP4, with (pGlu^1) or without (Gln^1) QC pre-incubation, FIG. 12; for influence of pGlu-formation at the N-terminus on chemotactic potency: compared to the respective glutamine-precursors, FIG. 11; for chemotactic potency of N-truncated DP4 cleavage products: truncation by 2 amino acids, FIG. 13
# Experimental: The chemotaxis assay was performed using 24 well TransWell plates with a pore size of 5 μm (Corning). THP-1 cells were suspended in RPMI1640 in a concentration of 1*10^6 cells/100 μl and applied in 100 μl aliquots to the upper chamber. Cells were allowed to migrate towards the chemoattractant for 2 h at 37° C. Subsequently, cells from the upper chamber were discarded and the lower chamber was mixed with 50 μl 70 mM EDTA in PBS and incubated for 15 min at 37° C. to release cells attached to the membrane. Afterwards, cells migrated to the lower chamber were counted using a cell counter system (Schärfe System). The chemotactic index was calculated by dividing cells migrated to the stimulus from cells migrated to the negative control.
# MCP-1 starting with glutamine 1 (Gln^1-MCP-1) (Peprotech) was incubated with recombinant human QC to generate pGlu^1-MCP-1, or with human recombinant DP4 to generate Asp^3-MCP-1. Concentrations of 1, 5, 10, 50, 100, 500 and 1000 ng/ml of the generated MCP-1 variants were tested using the THP-1 chemotaxis assay (n=3).
# MCP-1 with N-terminal glutamine (Gln^1-MCP-1) (Peprotech) was incubated with recombinant human QC and DP4 (Gln^1-MCP-1+QC+DP4), human recombinant DP4 alone (Gln^1-MCP+DP4) and with recombinant human QC in combination with 10 μM of QC-inhibitor 1-(3-(1H-imidazol-1-yl)propyl)-3-(3,4-dimethoxyphenyl)thiourea hydrochloride and DP4 (Gln^1-MCP-1+QC+QCI+DP4). Concentrations of 1, 5, 10, 50, 100, 500 and 1000 ng/ml of generated MCP-1 variants were tested using chemotaxis assay (n=3).
# Concentrations of 1, 5, 10, 50, 100, 500 and 1000 ng/ml of a particular MCP were tested using chemotaxis assay (n=3).
# For the generation of the DP4 cleavage product, the respective MCPs were incubated with human recombinant DP4 at a 1:100 dilution for 2 h at 30° C. prior to assay. Concentrations of 1, 5, 10, 50, 100, 500 and 1000 ng/ml of a particular MCP were tested using chemotaxis assay (n=3).
# MCP-1 receptors = MCP-1 receptors (Homo sapiens, UniProt P41597); details: cited from earlier work
# MCP-1 receptors, sequence (P41597 whole entry, the tested form may be a part): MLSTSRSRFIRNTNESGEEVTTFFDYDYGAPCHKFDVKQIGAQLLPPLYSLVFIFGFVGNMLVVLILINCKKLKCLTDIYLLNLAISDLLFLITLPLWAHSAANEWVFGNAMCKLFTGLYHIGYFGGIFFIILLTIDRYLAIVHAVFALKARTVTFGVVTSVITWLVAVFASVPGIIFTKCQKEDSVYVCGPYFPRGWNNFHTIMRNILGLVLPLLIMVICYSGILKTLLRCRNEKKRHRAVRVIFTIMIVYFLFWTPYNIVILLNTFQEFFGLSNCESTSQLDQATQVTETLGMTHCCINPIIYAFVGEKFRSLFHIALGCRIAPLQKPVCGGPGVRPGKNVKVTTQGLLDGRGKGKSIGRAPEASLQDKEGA
# recombinant human DP4 = recombinant human DP4 (Homo sapiens, UniProt P27487); assay: N-terminal degradation of human MCP-2, MCP-3 and MCP-4 by DP4, Maldi-TOF mass spectrometry; type: in vitro ADME; details: for truncation by DP4 of uncyclized variants starting with N-terminal glutamine: recombinant human DP4, 30° C.; for proteolytic degradation by DP4 with N-terminal pGlu-residue: pre-incubated with recombinant human QC 3 h, then DP4
# recombinant human DP4, sequence (P27487 whole entry, the tested form may be a part): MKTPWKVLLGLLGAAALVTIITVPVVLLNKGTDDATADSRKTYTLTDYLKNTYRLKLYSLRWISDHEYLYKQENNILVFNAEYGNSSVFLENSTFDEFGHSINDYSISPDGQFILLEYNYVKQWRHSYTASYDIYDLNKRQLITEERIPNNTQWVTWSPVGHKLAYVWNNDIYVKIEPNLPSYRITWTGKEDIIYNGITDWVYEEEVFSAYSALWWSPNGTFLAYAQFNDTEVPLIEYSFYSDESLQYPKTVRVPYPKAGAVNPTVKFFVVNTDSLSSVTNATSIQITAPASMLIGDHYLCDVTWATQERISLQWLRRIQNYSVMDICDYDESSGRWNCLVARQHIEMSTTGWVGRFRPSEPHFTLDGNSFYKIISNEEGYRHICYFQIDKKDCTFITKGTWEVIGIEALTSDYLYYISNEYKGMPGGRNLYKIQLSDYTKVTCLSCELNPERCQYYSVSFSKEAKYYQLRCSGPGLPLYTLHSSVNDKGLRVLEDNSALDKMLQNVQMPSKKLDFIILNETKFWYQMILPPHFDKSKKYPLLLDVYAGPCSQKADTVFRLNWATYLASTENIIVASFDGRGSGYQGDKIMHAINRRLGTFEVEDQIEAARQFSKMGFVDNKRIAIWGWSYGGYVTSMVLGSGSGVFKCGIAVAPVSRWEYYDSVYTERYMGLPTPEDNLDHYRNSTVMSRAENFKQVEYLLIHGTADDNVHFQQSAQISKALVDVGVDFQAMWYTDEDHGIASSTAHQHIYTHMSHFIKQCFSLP
# Experimental: Resulting DP4 cleavage products were analyzed using Maldi-TOF mass spectrometry after 0 min, 15 min, 30 min, 1 h, 2 h, 4 h and 24 h.
# (§3) MCP-3 was either pre-incubated with recombinant human QC (0.0006 mg/ml) for 3 h at 30° C. and subsequently incubated with recombinant human DP4 (0.00012 mg/ml) at 30° C. or incubated with recombinant human DP4 (0.00012 mg/ml) without prior QC application. Resulting DP4 cleavage products were analyzed using Maldi-TOF mass spectrometry after 0 min, 15 min, 30 min, 1 h, 2 h, 4 h and 24 h.
# as §3, with “MCP-4” for “MCP-3”, “(0.00006” for “(0.00012”
# [3] = incubation with human serum without QC pre-incubation, FIG. 7A
compound,measurement,setting,value
"CCC(C)C(N)C(=O)N1CCSC1 (stereo not shown) [Isoleucyl-Thiyzolidide, Isoleucyl-Thiazolidide]",N-terminal degradation of MCP-1 in serum,[1],prevents the N-terminal degradation
Gln1-MCP-1: Recombinant human MCP-1(1-76) (SEQ ID NO: 1) starting with an N-terminal glutamine (Peprotech),"final ratio, full-length pGlu1-MCP-1",[2]; [3],~40%
same,"final ratio, truncated Asp3-MCP-1",[2]; [3],approx. 60%
same,MCP-1 concentrations needed to elicit the maximum response,human THP-1 monocytes,500 to 1000 ng/mL
"MCP-1, 1-10: peptide corresponding to MCP-1, 1-10 (QPDAINAPVT; UniProt P13500 24-33, looked up, fragment) [reference compound]",receptor-binding activities,MCP-1 receptors,lacked detectable receptor-binding activities
"MCP-1: monocyte chemotactic protein-1, CCL2; form in the cited binding study not stated",Kd,MCP-1 receptors,2.8 nM
MCP-2: Human recombinant MCP-2 (SEQ ID NO: 11) carrying an N-terminal glutaminyl residue (Peprotech),truncation by DP4 of uncyclized variants starting with N-terminal glutamine,recombinant human DP4,readily truncated
same,influence of pGlu-formation at the N-terminus on chemotactic potency,human THP-1 monocytes,no influence
same,chemotactic potency of N-truncated DP4 cleavage products,human THP-1 monocytes,partial inactivation
MCP-3: Human recombinant MCP-3 (SEQ ID NO: 12) carrying an N-terminal glutaminyl residue (Peprotech),proteolytic degradation by DP4 with N-terminal pGlu-residue,recombinant human DP4,protects
same,truncation by DP4 of uncyclized variants starting with N-terminal glutamine,recombinant human DP4,readily truncated
same,influence of pGlu-formation at the N-terminus on chemotactic potency,human THP-1 monocytes,no influence
same,chemotactic potency of N-truncated DP4 cleavage products,human THP-1 monocytes,partial inactivation
MCP-4: Human recombinant MCP-4 (SEQ ID NO: 13) carrying an N-terminal glutaminyl residue (Peprotech),proteolytic degradation by DP4 with N-terminal pGlu-residue,recombinant human DP4,protects
same,truncation by DP4 of uncyclized variants starting with N-terminal glutamine,recombinant human DP4,readily truncated
same,influence of pGlu-formation at the N-terminus on chemotactic potency,human THP-1 monocytes,slightly increases
same,chemotactic potency of N-truncated DP4 cleavage products,human THP-1 monocytes,partial inactivation
"pGlu1-MCP-1: human MCP-1 with N-terminal pyroglutamic acid, generated by incubation of Gln1-MCP-1 with recombinant human QC",degradation in human serum,"[2]; pre-incubation with human QC, chosen time-frame (24 h) and dilution of the serum, FIG. 7B",no degradation
same,MCP-1 concentrations needed to elicit the maximum response,human THP-1 monocytes,50 to 100 ng/mL

# — US20110212853A1, “NOVEL DIAGNOSTIC METHOD” (PROBIODRUG AG, priority 2010, published 2011)
